Laboratory results: patent US20200369755A1 (PROTHENA BIOSCIENCES, published 2020)
Where no end group is shown, it is not given here.

What was measured:
[1] = molecular target: T1, biotinylated tau peptide, amino acid residues 262-276 of SEQ ID NO:3 (human, also: biotinylated, site not given here); experiment: peptide ELISA, epitope mapping of hybridoma positives
T1 construct: One of the overlapping peptides spanning 4R0N human tau
T1 peptide: SKCGSLGNIHHKPGG
Procedure: (§1) Additional peptides were used to model potential post-translational modifications of the C- and N-terminal ends of the protein.
(§2) Biotinylated peptides were bound to separate wells of a streptavidin-coated ELISA plate. The plate was blocked and treated with murine 3D6, followed by incubation with a horseradish peroxidase-conjugated anti-mouse antibody. After thorough washing, OPD was applied to the plate and allowed to develop. The plate was read at 450 nm absorbance. Background subtraction was performed with absorbance values from wells containing no primary antibody, and a threshold for positive binding was set to 0.2 absorbance units. […] (FIG. 1)

[2] = molecular target: T2, biotinylated tau peptide, amino acid residues 199-213 of SEQ ID NO:3 (human, also: biotinylated, site not given here); experiment: as above
T2 construct: One of the overlapping peptides spanning 4R0N human tau
T2 peptide: KSKIGSTENLKHQPG
Procedure: as §1, §2

[3] = molecular target: T3, tau peptide NVKSKIGSTENLKHQPG (SEQ ID NO:184) (human); experiment: peptide microarray, 3D6 at 10 ug/ml
T3 construct: Printed on a microarray together with all its single substitution variants; also called probe peptide
T3 peptide: NVKSKIGSTENLKHQPG
Procedure: The assay exchanged each of the amino acids in the peptide sequence with all 20 amino acids, to determine with a high degree of accuracy the core epitope for 3D6. The microarray was printed with all peptides in triplicate, along with HA control peptides to ensure assay performance. To perform the assay, the array was incubated with 3D6 (10 ug/ml) in blocking buffer, washed with PBS-T, followed by incubation with a goat anti-mouse secondary antibody conjugated to DyLight-680. In addition, the microarray was incubated with anti-HA antibody 12CA5 directly conjugated to DyLight-800. Microarrays were scanned using a LiCor scanner, and intensities of triplicates were averaged.

[4] = molecular target: biotinylated recombinant tau (UniProt P10636-6 1-383, limits assumed, biotinylated); experiment: competition ELISA: inhibition of biotinylated tau binding to plate-bound low molecular weight heparin
Sequence of biotinylated recombinant tau (P10636 other isoform, or with tags, fused parts or gaps limits assumed): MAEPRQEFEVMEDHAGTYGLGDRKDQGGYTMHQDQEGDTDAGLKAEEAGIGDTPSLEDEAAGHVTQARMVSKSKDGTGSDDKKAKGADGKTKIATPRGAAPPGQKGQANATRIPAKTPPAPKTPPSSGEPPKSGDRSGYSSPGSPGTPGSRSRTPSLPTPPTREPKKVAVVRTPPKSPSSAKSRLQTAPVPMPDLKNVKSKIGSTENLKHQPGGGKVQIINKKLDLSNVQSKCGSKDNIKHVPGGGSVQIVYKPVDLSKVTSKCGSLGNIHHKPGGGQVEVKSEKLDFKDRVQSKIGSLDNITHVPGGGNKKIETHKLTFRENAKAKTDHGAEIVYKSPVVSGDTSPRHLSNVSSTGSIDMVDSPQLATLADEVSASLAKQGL
Procedure: To test the ability of murine and humanized 3D6 variants to interrupt tau interaction with heparin, ELISA plates coated with low molecular weight heparin were first blocked with 2% BSA in PBS for 2h at room temperature. Plates were washed with TBST. After blocking, plates were incubated with biotinylated recombinant tau along with indicated concentrations of unlabeled antibody in 1% BSA/PBS for one hour at room temperature. Plates were again washed, and then incubated with streptavidin-HRP in 0.1% BSA/PBS for 45 min. Plates were then washed and developed with OPD, and absorbance was measured at 490 nm. Inhibition curves were analyzed using a 4-parameter log fit.

recombinant human tau = molecular target: T4, recombinant human tau (human, UniProt P10636-6 1-383, limits assumed); experiment: SPR (Biacore T200): antibody captured on an anti-mouse chip, recombinant human tau 10-0.14 nM as analyte, global 1:1 fit
T4 construct: also called human recombinant tau without polyhistidine tag; native, untagged protein
T4 sequence (P10636 other isoform, or with tags, fused parts or gaps limits assumed): as above
Procedure: Methods: SPR analysis was performed using a Biacore T200 to determine the binding kinetics of murine antibodies to recombinant human tau. To prepare a sensor surface, anti-mouse antibody (GE Life Sciences) was immobilized on sensor chip CM5 via amine coupling, and antibody was captured at a level to ensure maximum binding of 50 RU. Various concentrations of recombinant tau ranging from 10-0.14 nM were passed over the captured ligand at a flow rate of 50 μL/min in running buffer (HBS+0.05% P-20, 1 mg/mL BSA), for 180 sec association and 900 sec dissociation. Data were double-referenced to both an irrelevant sensor not containing antibody ligand, and 0 nM analyte concentration to account for the dissociation of ligand from the capture moiety. Data was then analyzed using a global 1:1 fit.

B1: murine 3D6 monoclonal antibody (antibody, IgG1, V domains shown)
VH: EVQLQQSGADLVRPGALVKLSCKASGFNIKDYYLHWVRQRPEQGLEWIGWIDPENGDTVYDPKFQGKATITADTSSNTAYLQLGSLTSEDTAVYFCSTLDFWGQGTTLTVSS
VL: not shown
notes: Hybridoma-derived mouse antibody; also called m3D6; mouse 3D6
**Q.** Does B1 bind [1]?
**A.** Result: binds

**Q.** Does B1 bind [2]?
**A.** Result: binds

**Q.** Does B1 bind [3]?
**A.** Result: binds

**Q.** What about the IC50 [4] of the same binder?
**A.** The IC50 was 0.409 nM.

**Q.** What about the Kd (recombinant human tau) of the same binder?
**A.** The Kd was 0.46 nM.

**Q.** And the koff (recombinant human tau)?
**A.** Its koff is 0.00119 s⁻¹.

**Q.** And the kon (recombinant human tau)?
**A.** Its kon is 2.58e+06 M⁻¹ s⁻¹.
